Positions count from the first letter of the chain named.
Columns and labels:
[1] = tested on: T1, HBV 11-12L.1090QE Linker1923(1/2) meganuclease (synthetic (I-CreI derived)); assay: cell_activity; details: off-target, HepG2-sAg, 100 ng mRNA, below LOD; 0.2% in naive PHH at 500 ng
T1 sequence: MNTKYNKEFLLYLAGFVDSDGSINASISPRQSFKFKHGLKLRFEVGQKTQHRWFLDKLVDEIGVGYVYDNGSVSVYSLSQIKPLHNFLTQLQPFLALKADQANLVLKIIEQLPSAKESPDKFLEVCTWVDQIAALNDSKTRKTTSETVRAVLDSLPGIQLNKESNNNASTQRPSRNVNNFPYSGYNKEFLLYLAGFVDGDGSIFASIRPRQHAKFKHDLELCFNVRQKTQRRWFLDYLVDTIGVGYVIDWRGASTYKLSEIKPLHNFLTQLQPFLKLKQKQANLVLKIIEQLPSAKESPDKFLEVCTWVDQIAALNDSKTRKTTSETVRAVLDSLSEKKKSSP

[2] = tested on: T2, HBV 11-12L.1090QQ Linker1 meganuclease (synthetic (I-CreI derived, Chlamydomonas reinhardtii)); assay: cell_activity; details: off-target, HepG2-sAg, 100 ng mRNA; on-target about 60%
T2 sequence: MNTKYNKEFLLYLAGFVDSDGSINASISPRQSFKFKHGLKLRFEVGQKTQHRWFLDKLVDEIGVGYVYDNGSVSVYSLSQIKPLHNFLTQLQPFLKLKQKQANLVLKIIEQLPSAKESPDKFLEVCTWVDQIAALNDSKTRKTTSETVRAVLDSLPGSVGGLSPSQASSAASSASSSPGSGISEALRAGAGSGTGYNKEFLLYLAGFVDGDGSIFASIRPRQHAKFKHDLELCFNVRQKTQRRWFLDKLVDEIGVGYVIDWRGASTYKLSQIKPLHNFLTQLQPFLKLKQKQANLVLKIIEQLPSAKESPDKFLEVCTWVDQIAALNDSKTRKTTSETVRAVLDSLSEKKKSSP

[3] = tested on: T3, HBV 11-12L.1090QQ Linker1923(1/2) meganuclease (synthetic (I-CreI derived)); assay: cell_activity; details: off-target, HepG2-sAg, 100 ng mRNA; on-target about 60%
T3 sequence: T1 sequence with E260Q

[4] = molecular target: T4, HBV 11-12L.1090QQ Linker1923(1/2) meganuclease (synthetic (I-CreI derived)); assay: cell_activity; indel formation in HepG2-sAg, day 2; EC90 4.93 ng; details: tags: SV40 NLS (N- and C-terminal in pRNA8), mRNA-delivered
T4 chain: T1 sequence with E260Q

[5] = molecular target: T5, HBV 11-12L.1090QE Linker1923(1/2) meganuclease (synthetic (I-CreI derived)); assay: cell_activity; indel formation in HepG2-sAg, day 2; EC90 23.93 ng; details: tags: SV40 NLS (N- and C-terminal in pRNA8), mRNA-delivered
T5 chain: T1 sequence

Molecule: top off-target site Chr17:17242769
- activity [1]: < 0.2 % editing
- activity [2]: 0.5 % editing
- activity [3]: 2 % editing

B1: HBV 11-12 recognition sequence (dsDNA)
DNA 1: TGCCGATCCATACTGCGGAACT
DNA 2: AGTTCCGCAGTATGGATCGGCA
- EC50 [4]: 0.26 ng mRNA
- EC50 [5]: 2.3 ng mRNA

— patent US20250346877, “[…] MEGANUCLEASES HAVING […] FOR A RECOGNITION SEQUENCE IN THE […] B VIRUS GENOME” (Precision BioSciences, Inc., published 2025)
